Test: yeast display, Sf9 membrane polyspecificity reagent, FACS + sequencing; frameworks hold sequencing errors
Procedure, shortened: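 After 36–48 hours of galactose induction, yeast (Saccharomyces cerevisiae BJ5465) displaying a synthetic nanobody library were stained at 4 °C for 1 hour with 10% biotinylated, detergent-solubilized Sf9 membrane reagent. Streptavidin microbeads enriched the stained cells before FACS sorting into low and high (top ~1%) gates on anti-HA and streptavidin fluorescence. Each clone's polyreactivity label reflects its gate of origin.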

| Sequence | polyreactivity (PSR sort gate) |
| --- | --- |
| QVQLVESGGGLVQAGGSLRLSCAASGITFRGNAMGWYRQAPGKERELVATISSGGITNYADSVKGRFTISRDNAKNTVYLQMNSLKPEDTAVYDCNADNAYGFYRVKYEGYYWGQGTQVTVSS | low polyreactivity |
| QVQLVESGGGLVQAGGSLRLSCAASGSTFRFYAMGWYRQAPGKERELVATISSSGGTTYYADSVKGRFTISRDNAKNTVYLQMNSLKPEDTAVYYCAARYYDTRWRYYYWGQGTQVTVSS | high polyreactivity |
| QVQLVESGGGLVQAGGSLRLSCAASGFTFRTYAMGWYRQAPGKERELVAAITRNGGTYYADSVKGRFTISRDNAKNTVYLQMHSLNPEDTAVYYCATDPAYWGDQPPEYDYWGQGTQVTVSS | low polyreactivity |
| QVQLVESGGGLVQAGGSLRLSCAASGRTFWDNAMGWYRQAPAKERELVAAITFRGGTTYYADSVKGRFTISRDNAKNTVYIQMNSLKPEDTAVYYCAARNGLYRLYYYWGQGTQVTVSS | high polyreactivity |
| QVQLVESGGGLVQAGGSLRLSCAASGRTFGSNLMGWYRQAPGKERELVADISVSGGSTNYADSVKGRFTISRDNAKNTVYVQLNSLNPEDTAVYYCAASQLSDWPPYYYDFDYWGQGTQVTVSS | low polyreactivity |
| QVQLVESGGGLVQAGGSLRLSCAASGYIFWINSMGWYRQAPGKERELVAAIRYSTGRTYYADSVKGRFTISRDNAKNTVYLQMNSQKPEDTAVYYCNARSWYIRGSQEYYYWGQGTQLTVSS | high polyreactivity |
| QVQLVESGGGLVQAGGSLRLSCAASGITLGAYAMGWYRQAPGKERELVAAISRSGGSTYYADSVKGRFTISRDNAKNTVYLQMNSLKPEDTAVYYCNAGITHGYDYWGQGTQLTVSS | high polyreactivity |
| QVQLVESGGGLVQAGGSLRLSCAASGLTFGHYAMGWYRQAPGKERELVATISSRGVSTRYADSVKGRFTISRDTAKNTVYLQMNSLKPEDTAVYYWHARDYTWGKYYSSKIGYYYWGQGTQVTVSS | high polyreactivity |
| QVQLVESGGGLVQAGGSLRLSCAASGSTFTSYAMGWYRQAPGKERELVAAINYSGGSTYYADSVKGRFTISRDNAKNTVYLQMNSLKPEDTAVYYCAADGYIRQYVTYYYWGQGTQVTVSS | low polyreactivity |
| QVQLVESGGGLVQAGGSLRLSCAASGSIFTPYAMGWYRQAPGKERELVAAITYSGGSTYYADSVKGRFTISRDNAKNTVYLQMNSLKPEDTAVYYCAAYFNIYGLEYDYWGQGTQVTVSS | high polyreactivity |
| QVQLVESGGGLVQAGGSLRLSCAASGFIFVLYAMGWYRQAPGKERELVAAITWSTGSTYYADSVKGRFTISRDNAKNTVYLQMNSLKPEDTAVYYCAADQYIFGIWFDYWGQGTQVTVSS | high polyreactivity |
| QVQLVESGGGLDQAGGSLRLSCAASGIIFARNAMGWYRQAPGKERELVAAISGSGGRTYYADSVKGRFTISRDNAKNTVYLQMNSLKPEDTAVYYCAAEYTYRAVALDYWGQGTQVTVSS | high polyreactivity |
| QVQLVESGGGLFQAGGSLRLSCAASGSTFGSYAMGWYRQAPAKERELVADISSRGASTYYADSVKGRFTISRDNEKNTVYLEMISLKPEDTAVYYCNTTGEYYDYWGHGTQVTVSS | low polyreactivity |
| QVQLVESGGGLVQAGGSLRLSCAASGRIFFVYAMGWYRQSPGKERELVAAISVSDVSTSYADSVKGRFTISRDIAKNTVYLQMNSLKQEDTAVYYCNAGFRFYVYSRIGGEDYWGQGTQVTVSS | low polyreactivity |
| QVQLVESGGGLVQAGGSLRLSCAASGIIFGPYAMGWYRQAPGKERELVAAISSSGGNTYYADSVKGRFTISRDNAKNTVYLQMNSLKPEYTAVYYCAAEGYWGQPFDYDGALEYWGQGTQVTVSS | high polyreactivity |
| QVQLVESGGGLVQAGGSLRLSCAASGFTFSPYAMGWYRQATGKERELVAAIRWTDGSTYYADSVKGRFTISRDNAKNTVYLQMNSLKPEDTAVYYCAAYWYHNIGGYGPGLNYWGEGTQVTVSS | high polyreactivity |

| Sequence | polyreactivity (PSR sort gate) |
| --- | --- |
| QVQLVDSGGGLVQAGGSLRLSCAASGSTFFFNDLGWSRQAPGKESEFVAGISSSGGSTHYADSVKGRFTISRDKAKNTVYFQMNSLKPEDTAVYYCNTLRNWYYQFDFNYWGQGTQVTVSS | low polyreactivity |
| QVQLVESGGGLVQAGGSLRLSCAASGRTFGVYAMGWYRQAPGKERELVAAISATGGSTYYADSVKGRFTISRDNAKNTVYLQMNSLKPEDTAVYYCARGGTTLYWGQGTQVTVSS | high polyreactivity |
| QVQLQESGGGLVQAGGCLRLSCAASGSIFDPDYMGWYHQAPGKESELVASISLGRITYYADSVKGRFTINRDNAKNTVYLQMNSLKPEDTAVYYCAVRVETIYYYSYWGQGTQVTVSS | high polyreactivity |
| QVQLVESGGGLVQAGGSLRLTCAASGSTFKYYAMGWYRQAPGKERELVAAIDWNGGRTYYADSVKGRFTISRDNAKNTVYLQMNSLKPEDTAVYYCAKLGRAAQGNYYWGQGTQVTVSS | high polyreactivity |
| QVQLVESGGGLVQAGGSLRLSCAASGRTLVKYAMGRYRPAPGKERELVAALTQRGGITYYADSVKGRFTISRDNAKNTVYLQMNSLKPEDTAVYYCAASLYSYRSPYTFYYWGQGTQVTVSS | high polyreactivity |
| QFQLVESGGGLVQAGGSLRLSCAASGSIFIPYAMGWYRQAPGKEREFVATITFGAASTYYADSVKGRFTISRDNAKNTVYLQMNSLKREDTAVYYCAAEWRRYEYADSWEYDYWGQGTQVTVSS | low polyreactivity |
| QVQLVESGGGLVQAGGSLRLSCAASGYIFFFYAMGWYRQAPGKERELVASITYRGGSTYYADSVKGRFTISRDNSKNTVYLQMNSLKPEDTAVYYCAADVRASRFDYWGQGTQVTVSS | low polyreactivity |
| QVQLVESGGGLVQAGGSLRLSCAASGSTFTYNAMGWYRQAPGKERELVASISSGTTTYYADSVKGRFTISRDNAKNTVYLQMNSLKPEDTAVYYCNADYFDYSRPRYDYWGQGTQVTVSS | low polyreactivity |
| QVQLVESGGGLVQAGGSLRLSCAASGITFYKYVMGWYRQAPGKERELVAAITYSGGSTYYADSVKGRFTISRDYAKNTVYLQMYSLKPEDTAVYYCAKRRPALRWIYYYWGQGTQVTVSS | high polyreactivity |
| QVQLVESGGGLVKAGGSLRLSCAASGSIFDFYVMGWYRQAPGKERELVAAISSGGSTYYADSVKGRFTISRDNAKNTVYIKMNSLKPEDTAVYYCAAYPEYVSGAWYDYWGQGTQVTVSS | low polyreactivity |
| QVQLVESGGGLVQAGGSLRLSCAASGLIFAYAMGWYRQAPGTERELVAAISGRDGSTYYADSVKGRFTISRDNAKNTVYLQMNSLKPEDTAVYYCAKRISYLPVEMDYWGQGTQVTVSS | low polyreactivity |
| QVQLVESGGGLVQAGGSLRLSCAASGITFEVYAMAWYRQAPATERELVAVITSVGSTNYADSVKGRFTISRDNAKNTVYLQMNSLKTEDNAVYYCAGEKWTVRRFNPYTYYRYDYWGQGTQVTVSS | low polyreactivity |
| QVQLVESGGGLVQAGGSLRLSCAASGNIFAPNAMGWYRQAPGKERELVAAISRSGGSTHYADSVKGRFTISRDNAKNTVYLQMNSLKPEDTAVYYCAAGWYGRYTSKMGYWGQGTQVTVSS | high polyreactivity |
| QVQLVESGGGLVQAEGSLRLSCAASGIIFFHNAMGWYRQAPGKERELVATISRSGGSTYYADSVKGRFTISRDNAKNTVYLQMNSLKPEDTAVYYCAARQSIFYSWTGVEYYYWGQGTQVTVSS | low polyreactivity |
| QVQLVESGGGLVQAGGSLRLSCAVSGRIFRRNVMGWYRQAPGKERELVAGISYSGDSTYYADSVKGRFTLSRDNAKITDYLQMNSLKPEDTAVYYCATRYTYSTDTGYDYWGQGTQVTVSS | low polyreactivity |
